Results on six molecules are retold here after US20040072256A1 (published 2004).

Test [1] concerns the target T1, hemagglutinin (HA) of Influenza virus A/PR/8/34 (H1N1) (Influenza virus A/PR/8/34 (H1N1), UniProt P03452 18-565).
T1 construct: whole, on cells; On IV-infected 1106mel cells; also called IV HA; viral HA
The test can be described thus: flow cytometry on IV-infected 1106mel cells (FIG. 11).

Test [2] deals with T1, hemagglutinin (HA) of Influenza virus …. The test can be described thus: flow cytometry on IV-infected vs uninfected 1106mel cells. (Flow cytometry measures light scatter and fluorescence of single cells or particles in a stream.)
Test [3] shares this target. Nature of the test: flow cytometry, IV-infected vs uninfected 1106mel cells.
Test [4] concerns the target T2, hemagglutinin-neuraminidase (HN) glycoprotein of Sendai virus (Sendai virus).
T2 construct: whole, on cells; also called SV HN; Sendai HN
Nature of the test: flow cytometry, SV-infected vs uninfected 721.221 cells.

Test [5] concerns the target T2, hemagglutinin-neuraminidase (HN) …. Nature of the test: flow cytometry, 293T cells transfected with Sendai HN cDNA vs mock.

T2 sequence (P19758 whole entry): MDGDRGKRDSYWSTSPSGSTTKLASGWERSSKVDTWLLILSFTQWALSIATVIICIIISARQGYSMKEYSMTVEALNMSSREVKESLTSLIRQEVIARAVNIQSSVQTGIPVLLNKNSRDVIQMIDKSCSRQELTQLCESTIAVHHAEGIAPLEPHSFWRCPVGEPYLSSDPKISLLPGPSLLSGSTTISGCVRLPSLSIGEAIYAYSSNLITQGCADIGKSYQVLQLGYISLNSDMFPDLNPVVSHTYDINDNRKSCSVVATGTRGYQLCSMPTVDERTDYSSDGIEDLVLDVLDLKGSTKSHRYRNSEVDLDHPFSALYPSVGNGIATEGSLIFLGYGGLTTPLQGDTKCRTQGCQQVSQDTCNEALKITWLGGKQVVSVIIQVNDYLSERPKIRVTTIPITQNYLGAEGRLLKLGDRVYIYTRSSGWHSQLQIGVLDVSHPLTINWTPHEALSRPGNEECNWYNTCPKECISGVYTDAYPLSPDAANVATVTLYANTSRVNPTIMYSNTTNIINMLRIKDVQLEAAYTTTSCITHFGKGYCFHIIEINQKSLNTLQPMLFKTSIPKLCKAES

B1: NKp46D1-Ig fusion protein (Fc fusion)
chain: QQQTLPKPFIWAEPHFMVPKEKQVTICCQGNYGAVEYQLHFEGSLFAVDRPKPPERINKVKFYIPDMNSRMAGQYSCIYRVGELWSEPSNLLDLVVTEMDPEPKSSDKTHTCPPCPAPEFEGAPSVFLFPPKPKDTLMISRTPEVTCVVVDVSHEDPEVKFNWYVDGVEVHNAKTKPREEQYNSTYRVVSVLTVLHQDWLNGKEYKCKVSNKALPAPIEKTISKAKGQPREPQVYTLPPSRDELTKNQVSLTCLVKGFYPSDIAVEWESNGQPENNYKTTPPVLDSDGSFFLYSKLTVDKSRWQQGNVFSCSVMHEALHNHYTQKSLSLSPGK
notes: Junction between domain and Fc not described
With B1, in test [1], the binding result is “no binding”.

B2: KIR-1-Ig fusion protein (Fc fusion)
chain: HEGVHRKPSLLAHPGRLVKSEETVILQCWSDVMFEHFLLHREGMFNDTLRLIGEHHDGVSKANFSISRMTQDLAGTYRCYGSVTHSPYQVSAPSDPLDIVIIGLYEKPSLSAQLGPTVLAGENVTLSCSSRSSYDMYHLSREGEAHERRLPAGPKVNGTFQADFPLGPATHGGTYRCFGSFHDSPYEWSKSSDPLLVSVTGNPSNSWPSPTEPSSKTGNPRHLH
notes: extracellular domain; not shown: Fc portion of human IgG1
As to B2, in test [2], the binding result is “no binding”.

B3: NKp44-Ig fusion protein (Fc fusion)
chain: QSKAQVLQSVAGQTLTVRCQYPPTGSLYEKKGWCKEASALVCIRLVTSSKPRTMAWTSRFTIWDDPDAGFFTVTMTDLREEDSGHYWCRIYRPSDNSVSKSVRFYLVVSPASASTQTPWTPRDLVSSQTQTQSCVPPTAGARQAPESPSTIPVPSQPQNSTLRPGPAAPDPEPKSSDKTHTCPPCPAPEFEGAPSVFLFPPKPKDTLMISRTPEVTCVVVDVSHEDPEVKFNWYVDGVEVHNAKTKPREEQYNSTYRVVSVLTVLHQDWLNGKEYKCKVSNKALPAPIEKTISKAKGQPREPQVYTLPPSRDELTKNQVSLTCLVKGFYPSDIAVEWESNGQPENNYKTTPPVLDSDGSFFLYSKLTVDKSRWQQGNVFSCSVMHEALHNHYTQKSLSLSPGK
modifications: sialylated oligosaccharides (binding to HA depends on them)
notes: Made in COS-7, purified on protein G
Regarding B3, the “fold increase in staining on IV infection” value in test [3] was about 4 fold. The “fold increase in staining on SV infection” value in test [4] came to 10 fold. Further, the “fold increase in staining on HN transfection” value in test [5] worked out at 2 fold.

B4: NKAT-8-Ig fusion protein (Fc fusion)
chain: QEGVHRKPSFLALPGHLVKSEETVILQCWSDVMFEHFLLHREGKFNNTLHLIGEHHDGVSKANFSIGPMMPVLAGTYRCYGSVPHSPYQLSAPSDPLDMVIIGLYEKPSLSAQPGPTVQAGENVTLSCSSRSSYDMYHLSREGEAHERRLPAVRSINGTFQADFPLGPATHGGTYRCFGSFRDAPYEWSNSSDPLLVSVTGNPSNSWPSPTEPSSKTGNPRHLH
notes: as for B2
With B4, the binding result in test [2] is “no binding”.

B5: NKp30-Ig fusion protein (Fc fusion)
chain: LWVSQPPEIRTLEGSSAFLPCSFNASQGRLAIGSVTWFRDEVVPGKEVRNGTPEFRGRLAPLASSRFLHDHQAELHIRDVRGHDASIYVCRVEVLGLGVGTGNGTRLVVEKEHPQLGDPEPKSSDKTHTCPPCPAPEFEGAPSVFLFPPKPKDTLMISRTPEVTCVVVDVSHEDPEVKFNWYVDGVEVHNAKTKPREEQYNSTYRVVSVLTVLHQDWLNGKEYKCKVSNKALPAPIEKTISKAKGQPREPQVYTLPPSRDELTKNQVSLTCLVKGFYPSDIAVEWESNGQPENNYKTTPPVLDSDGSFFLYSKLTVDKSRWQQGNVFSCSVMHEALHNHYTQKSLSLSPGK
Take B5: in test [2], the binding result was “no binding”.

B6: NKp46D2-Ig fusion protein (Fc fusion)
chain: YDTPTLSVHPGPEVISGEKVTFYCRLDTATSMFLLLKEGRSSHVQRGYGKVQAEFPLGPVTTAHRGTYRCFGSYNNHAWSFPSEPVKLLVTGDIENTSLAPEDPTFPADTWGTYLLTTETGLQKDHALWDHTAQDPEPKSSDKTHTCPPCPAPEFEGAPSVFLFPPKPKDTLMISRTPEVTCVVVDVSHEDPEVKFNWYVDGVEVHNAKTKPREEQYNSTYRVVSVLTVLHQDWLNGKEYKCKVSNKALPAPIEKTISKAKGQPREPQVYTLPPSRDELTKNQVSLTCLVKGFYPSDIAVEWESNGQPENNYKTTPPVLDSDGSFFLYSKLTVDKSRWQQGNVFSCSVMHEALHNHYTQKSLSLSPGK
modifications: sialic acid residues (binding depends on them)
notes: Junction and leader used for secretion not described
For the molecule B6, in test [4], the “fold increase in staining on SV infection” value is about 10 fold.
